Laboratory results as given in patent US20250134889.
Substitutions are numbered along the chain they refer to. Names may count otherwise.

B1: purified, recombinant human IRE1-kinase/RNase domains (amino acids 468-977) (protein)
chain: MHQQQQLQHQQFQKELEKIQLLQQQQQQLPFHPPGDTAQDGELLDTSGPYSESSGTSSPSTSPRASNHSLCSGSSASKAGSSPSLEQDDGDEETSVVIVGKISFCPKDVLGHGAEGTIVYRGMFDNRDVAVKRILPECFSFADREVQLLRESDEHPNVIRYFCTEKDRQFQYIAIELCAATLQEYVEQKDFAHLGLEPITLLQQTTSGLAHLHSLNIVHRDLKPHNILISMPNAHGKIKAMISDFGLCKKLAVGRHSFSRRSGVPGTEGWIAPEMLSEDCKENPTYTVDIFSAGCVFYYVISEGSHPFGKSLQRQANILLGACSLDCLHPEKHEDVIARELIEKMIAMDPQKRPSAKHVLKHPFFWSLEKQLQFFQDVSDRIEKESLDGPIVKQLERGGRAVVKMDWRENITVPLQTDLRKFRTYKGGSVRDLLRAMRNKKHHYRELPAEVRETLGSLPDDFVCYFTSRFPHLLAHTYRAMELCSHERLFQPYYFHEPPEPQPPVTPDAL
B2: inositol-requiring enzyme-1 (IRE1), wild type, expressed from plasmid in HEK293T cells (protein)
chain: IFGSTSTVTLPETLLFVSTLDGSLHAVSKRTGSIKWTLKEDPVLQVPTHVEEPAFLPDPNDGSLYTLGSKNNEGLTKLPFTIPELVQASPCRSSDGILYMGKKQDIWYVIDLLTGEKQQTLSSAFADSLCPSTSLLYLGRTEYTITMYDTKTRELRWNATYFDYAASLPEDDVDYKMSHFVSNGDGLVVTVDSESGDVLWIQNYASPVVAFYVWQREGLRKVMHINVAVETLRYLTFMSGEVGRITKWKYPFPKETEAKSKLTPTLYVGKYSTSLYASPSMVHEGVAVVPRGSTLPLLEGPQTDGVTIGDKGECVITPSTDVKFDPGLKSKNKLNYLRNYWLLIGHHETPLSASTKMLERFPNNLPKHRENVIPADSEKKSFEEVINLVDQTSENAPTTVSRDVEEKPAHAPARPEAPVDSMLKDMATIILSTFLLIGWVAFIITYPLSMHQQQQLQHQQFQKELEKIQLLQQQQQQLPFHPPGDTAQDGELLDTSGPYSESSGTSSPSTSPRASNHSLCSGSSASKAGSSPSLEQDDGDEETSVVIVGKISFCPKDVLGHGAEGTIVYRGMFDNRDVAVKRILPECFSFADREVQLLRESDEHPNVIRYFCTEKDRQFQYIAIELCAATLQEYVEQKDFAHLGLEPITLLQQTTSGLAHLHSLNIVHRDLKPHNILISMPNAHGKIKAMISDFGLCKKLAVGRHSFSRRSGVPGTEGWIAPEMLSEDCKENPTYTVDIFSAGCVFYYVISEGSHPFGKSLQRQANILLGACSLDCLHPEKHEDVIARELIEKMIAMDPQKRPSAKHVLKHPFFWSLEKQLQFFQDVSDRIEKESLDGPIVKQLERGGRAVVKMDWRENITVPLQTDLRKFRTYKGGSVRDLLRAMRNKKHHYRELPAEVRETLGSLPDDFVCYFTSRFPHLLAHTYRAMELCSHERLFQPYYFHEPPEPQPPVTPDAL
B3: kinase dead (KD) mutant IRE1 (K599A), expressed from plasmid in HEK293T cells (protein)
chain: B2 chain with K581A

Molecular target: purified, recombinant human FMRP protein

Protein	IRE1-induced phosphorylation sites on FMRP (LC-MS/MS)	phosphorylation in an in vitro kinase reaction of purified proteins (western blot for ThioP; LC-MS/MS)	thio-phosphorylation in an in vitro kinase reaction (ATP-γ-S; western blot with anti-thiophosphate ester antibody)
B1	eight IRE1-induced phosphorylation sites on FMRP at serine (S362, S494, S497, S500, S504) and threonine (T502, T592, T594)	Both IRE1 and FMRP were phosphorylated in this reaction in an AMG-18-sensitive manner	–
B2	–	–	In the reaction containing IRE1-WT, both proteins were thio-phosphorylated
B3	–	–	but not in the reaction containing the IRE1-KD mutant
